According to article PMC8129110:

What was measured:
[1] = target: Sla2 ANTH domain (S. cerevisiae), wild type; assay: DLS; conditions: complexes assembled in the presence of PIP2; parent: est. 100; read off a plot
[2] = target: Ent1 ENTH domain (S. cerevisiae), wild type (UniProt Q12518); assay: DLS; conditions: complexes assembled in the presence of PIP2; parent: est. 100; read off a plot
UniProt Q12518, sequence (Q12518 whole entry, looked up, the tested form may be a part): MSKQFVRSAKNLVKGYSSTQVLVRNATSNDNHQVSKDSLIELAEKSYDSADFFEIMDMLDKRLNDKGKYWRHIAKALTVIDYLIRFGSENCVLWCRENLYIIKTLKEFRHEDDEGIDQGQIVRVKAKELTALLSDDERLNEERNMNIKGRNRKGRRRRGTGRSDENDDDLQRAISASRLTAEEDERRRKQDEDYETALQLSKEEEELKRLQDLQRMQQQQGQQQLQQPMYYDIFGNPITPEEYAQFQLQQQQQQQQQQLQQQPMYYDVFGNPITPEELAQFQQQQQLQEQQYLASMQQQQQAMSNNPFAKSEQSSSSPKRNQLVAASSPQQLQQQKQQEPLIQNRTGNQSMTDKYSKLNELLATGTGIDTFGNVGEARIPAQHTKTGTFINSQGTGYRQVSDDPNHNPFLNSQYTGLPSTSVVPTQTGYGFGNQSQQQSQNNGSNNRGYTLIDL

| response [1] [% mass] | response [2] [% mass] | Substance |
| --- | --- | --- |
| 37 |  | Ent1 ENTH domain (S. cerevisiae), wild type (from UniProt Q12518) Y100R |
|  | 21 | Sla2 ANTH domain (S. cerevisiae), wild type R3A |
|  | 100 | Sla2 ANTH domain (S. cerevisiae), wild type R3A; I4A; D37R |
|  | 27 | Sla2 ANTH domain (S. cerevisiae), wild type R29A |
|  | 32 | Sla2 ANTH domain (S. cerevisiae), wild type R25A |
| 75 |  | Ent1 ENTH domain (S. cerevisiae), wild type (from UniProt Q12518) E107A |
|  | 100 | Sla2 ANTH domain (S. cerevisiae), wild type Q9A; K10A |
|  | 28 | Sla2 ANTH domain (S. cerevisiae), wild type K10A; K13A; K14A |
| 100 |  | Ent1 ENTH domain (S. cerevisiae), wild type (from UniProt Q12518) E54A; D57A; D60A |
